{"source": "paper doi:10.1101/2020.02.02.931204", "about": "“Fast Transport of RNA Granules by Direct Interactions with KIF5A/KLC1 Motors Prevents Axon Degeneration” (bioRxiv, 2020)", "binders": {"B1": {"name": "SFPQ WT peptide spanning the Y-acidic motif (peptide)", "peptide": "ESEMEDAYHEHQANLLR", "notes": "SFPQ, human, stretch of the coiled coil domain with the Y-acidic motif; the underlined Y is Y527; also called long SFPQ peptide; WT SFPQ; source: synthetic peptide (KE BioChem)"}}, "molecular_target": "T1, KLC1 (TPR1-6) fragment, human KNS2 residues 205-501 (human, UniProt Q07866 205-501)", "T1 construct": "KLC1 (KNS2), human, residues 205-501 (TPR1-6), in the pET28MHL vector; No removal of the tag is described; also called purified human KLC1; source: E. coli BL21 (DE3), purified (Ni-NTA, Superdex-200 gel filtration)", "T1 sequence (Q07866 205-501)": "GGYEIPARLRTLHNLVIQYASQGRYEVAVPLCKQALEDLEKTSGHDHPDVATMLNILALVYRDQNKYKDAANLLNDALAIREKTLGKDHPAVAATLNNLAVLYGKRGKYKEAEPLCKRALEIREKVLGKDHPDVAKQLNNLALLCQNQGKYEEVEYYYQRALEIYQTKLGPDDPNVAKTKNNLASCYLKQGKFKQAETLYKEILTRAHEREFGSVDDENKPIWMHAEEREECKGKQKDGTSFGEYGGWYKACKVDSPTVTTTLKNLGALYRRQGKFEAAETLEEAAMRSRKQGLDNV", "assay": "ITC; KLC1 (TPR1-6) at 20μM in the cell, SFPQ peptide at 200μM in the syringe, 30 injections of 4μL; 20mM HEPES pH 7.5, 150mM NaCl, 0.5mM TCEP, 2% DMSO, 25°C; single site model", "settings": "both partners purified"}
{"binder": "B1", "values": [{"measurement": "Kd", "result": "3.8 ± 2.3", "unit": "µM"}, {"measurement": "stoichiometry N", "result": 1}]}
